From the nanobody polyreactivity screen of Harvey et al. (2022) come the findings set out here.

This data set is described as follows: yeast display, Sf9 membrane polyspecificity reagent, FACS + sequencing; frameworks hold sequencing errors. Summed up: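 Using colony PCR, genes from sorted yeast display clones were amplified, then sequenced on MiSeq at 2 × 250 and filtered by CDR length. The clones had been stained with 10% biotinylated, detergent-solubilized Sf9 membrane reagent for 1 hour at 4 °C and sorted by FACS into low and high (top ~1%) gates on anti-HA and streptavidin fluorescence. Polyreactivity labels come from the gate of origin.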
As for “QVQLVESGGGLVQAGGSLRLSCAASGFTFRFNAMGWYRQAPGKERELVAAIRQSGGSTYYADSVKGRFTISRDTAKNTVSLQMNSLKPEDTAVYYCATGRSRIRNFGYWGQGTQVTVSS”, the “polyreactivity (PSR sort gate)” value is “high polyreactivity”.

“QVQLVESGGGLVQAGGSLRLSCAASGFTFRFNAMGWYRQAPGKERELVAAIRYSSGSTYYADSVKGRFTISRDNAKNTVYLEMNSLKPEDTAVYYCAAEQDYNRGYVTGRYYYWGQGTQVTVSS”: the “polyreactivity (PSR sort gate)” value is on record as “high polyreactivity”.

“QVQLVESGGGLVQAGGSLRLSCAASGFTFRFYAMGWYRQAPGKERELVAAISRSGGDTYYADSVKGRFTISRDNAKNTVYLQMNSLKPEDTAVYYCNKATYRVAGRDFDYWGHGTQVTVSS”: the “polyreactivity (PSR sort gate)” value was “high polyreactivity”.

Turning to “QVQLVESGGGLVQAGGSLRLSCAASGFTFRFYAMGWYRQAPGKERELVAAISRSGGDTYYADSVKGRFTISRDNAKNTVYLQRNRLIPEDTAVYYCNKATYRVAGRDFDYWGQGTQVTVSS”, the “polyreactivity (PSR sort gate)” value is listed as “high polyreactivity”.

For “QVQLVESGGGLVQAGGSLRLSCAASGFTFRFYAMGWYRQAPGKERELVAAISSSSSSTYYADSVKGRFTISRDNAKNTVYLQMNSLKPEDTAVYYCNAGGYTRGDYWGQGTQVTVSS”, the “polyreactivity (PSR sort gate)” value is on record as “high polyreactivity”.

Turning to “QVQLVESGGGLVQAGGSLRLSCAASGFTFRFYAMGWYRQAPGKERELVAAISYNGGSTYYADSVKGRFTISRDNAKNTVYLQMNSLKPEDTAVYYCAAGYYWQYTSSSAQYAYDYWGQGTQVTVSS”, the “polyreactivity (PSR sort gate)” value is reported as “low polyreactivity”.

On to “QVQLVESGGGLVQAGGSLRLSCAASGFTFRGNAMGWYRQAPGKERELVATISRGGNTNYADSVKGRFTISRDNAKNTVYLQMNSLKPEDTAVYYCAAVSYIRSKVAYNYWGQGTQVTVSS”, for which the “polyreactivity (PSR sort gate)” value was “low polyreactivity”.

In the case of “QVQLVESGGGLVQAGGSLRLSCAASGFTFRGNVMGWYRQAPGKERELVAGISSTGSTYYADSVKGRFTISRDNAKNTVYLQMYSVKPVDTAVYYCAAAAIYFRYDYWGQGTQVTVSS”, the “polyreactivity (PSR sort gate)” value is listed as “high polyreactivity”.

Consider “QVQLVESGGGLVQAGGSLRLSCAASGFTFRGYAMGWYRQAPGKERELVAAISNGGGTNYADSVKGRFTISRDNAKNTVYLQMNSLKPEDTAVYYCNAPGYRAENPGFDYWGQGTQVTVSS”, for which the “polyreactivity (PSR sort gate)” value is recorded as “high polyreactivity”.

Consider “QVQLVESGGGLVQAGGSLRLSCAASGFTFRGYTIGWYRQAPGKERELVAAITWSGGSTYYADSVKGRFTISRDNAKNTVYLQMNSLKPEDTAVYYCASYAWYGYVYHHLYDYWGQGTQVTVSS”, for which the “polyreactivity (PSR sort gate)” value was “high polyreactivity”.

As for “QVQLVESGGGLVQAGGSLRLSCAASGFTFRIYTMVWYRPAPRKERELVAAISSRGGSTYYADSVKGRFTISRDNAKNTVYLQMNSLKPEDTAVYYCAASGRVYSSGYDYWGQGTQVTVSS”, the “polyreactivity (PSR sort gate)” value was “high polyreactivity”.

With “QVQLVESGGGLVQAGGSLRLSCAASGFTFRKYVMGWYRQAPGKERELVAGISRSGSRTYYADSVKGRFTISRDNAKNTVYLQMNSLKPEDTAVYYCAADAAHSEYDYWGQGTQVTVSS”, the “polyreactivity (PSR sort gate)” value was “high polyreactivity”.

With “QVQLVESGGGLVQAGGSLRLSCAASGFTFRPYAMGWYRQAPGKERELVAAISTSGATTYYADSVKGRFTISRDNAKITVYLQMNSLKPEDTAVYYCNKVYWHHPWEYGYWGQGTQVTVSS”, the “polyreactivity (PSR sort gate)” value was “high polyreactivity”.

With “QVQLVESGGGLVQAGGSLRLSCAASGFTFRQYAMGWYRQAPGKERELVAAISRSGSRTYYADSVKGRFTISRDNAKNTVYLQMNSLKPEDTAVYYCAARSYYNGKISRVGYWGQGTQVTVSS”, the “polyreactivity (PSR sort gate)” value is recorded as “high polyreactivity”.

As to “QVQLVESGGGLVQAGGSLRLSCAASGFTFRRNAMGWYRQAPGKERELVAAITYNGGTTYYADSVKGRFTISRDYAKNTVYLQMNSLKPVDTAVYYCNAPYGRQGYDYWGQGTQVTVSS”, the “polyreactivity (PSR sort gate)” value is reported as “low polyreactivity”.

Turning to “QVQLVESGGGLVQAGGSLRLSCAASGFTFRRNAMGWYRQAPGKERELVAVITSSARTNYADSVKGRFTISRDNAKNTVYLQMNSLKPEDTAVYYCNAYRYRQSSSDKYGYWGQGTQVTVSS”, the “polyreactivity (PSR sort gate)” value is recorded as “high polyreactivity”.

“QVQLVESGGGLVQAGGSLRLSCAASGFTFRRNTMGWYRQEPGKERELVAAITQRGGSTYYADSVKGRFTISRDNAKNTVYLQMNSLKPEDTAVYYCAVERHSYIYKYDYWGQGTQVTVSS”: the “polyreactivity (PSR sort gate)” value is “high polyreactivity”.

Take “QVQLVESGGGLVQAGGSLRLSCAASGFTFRRYALGWYRQAPGKERELVAGITGRGGSTYYADSVKGRFTISRDNAKNTVYLQMNSLKPEDTAVYYCNKPRAARGYMTGQLDYWGQGTQVTVSS”: the “polyreactivity (PSR sort gate)” value is given as “high polyreactivity”.

Take “QVQLVESGGGLVQAGGSLRLSCAASGFTFRRYAMGWYRLAPGKERELVAAISQSGGRTYYADSVKGRFTISRDNAKNTVYLQMNSLKPEDTAVYNFAKDAAGGRHYDYWGQGTQVTVSS”: the “polyreactivity (PSR sort gate)” value was “high polyreactivity”.

With “QVQLVESGGGLVQAGGSLRLSCAASGFTFRRYAMGWYRQAPGKEREFVAAITRSSGRTYYADSVKGRFTISRDNAKNTVYLQMNSLKPEDTAVYYCNRDTSIRHYNYWGQGTQVTVSS”, the “polyreactivity (PSR sort gate)” value is “high polyreactivity”.

With “QVQLVESGGGLVQAGGSLRLSCAASGFTFRRYAMGWYRQAPGKERELVAAISNGGSTYYADSVKGRFTISRDNAKNTVYLQMNSLKPEDTAVYYCAADIYSYFWWPYYYWGQGTQVTVSS”, the “polyreactivity (PSR sort gate)” value is given as “high polyreactivity”.

As for “QVQLVESGGGLVQAGGSLRLSCAASGFTFRRYAMGWYRQAPGKERELVAAITRDDSTNYADSVKGRFTISRDNAKNTVYLQMNSLKPEDTAVYYCAARLWYPYYYWGQGTQVTVSS”, the “polyreactivity (PSR sort gate)” value was “high polyreactivity”.

As for “QVQLVESGGGLVQAGGSLRLSCAASGFTFRRYAMGWYRQAPGKERELVATITIGGSTSYADSVKGRFTISRDNAKNTVYLQMNSLKPEDTAVYYCAAVANPNRYRFDYWGQGSQVTVSS”, the “polyreactivity (PSR sort gate)” value is given as “high polyreactivity”.

As for “QVQLVESGGGLVQAGGSLRLSCAASGFTFRRYAMGWYRQAPGKERVLVAAISRGGSSTYYADSVKGRFTISRDNAKNTVYLQMNSLKPEDTAVYYCNARTYVALGFNYWGQGTQVTVSS”, the “polyreactivity (PSR sort gate)” value was “high polyreactivity”.

Take “QVQLVESGGGLVQAGGSLRLSCAASGFTFRRYDMGWYRQAPGKERELVATINRGGSTDYADSVKGRFTISRDNAKNTVYLQMNSLKPEDNAVYYCAADSYSTCADDYWGQGTQVTVSS”: the “polyreactivity (PSR sort gate)” value is recorded as “high polyreactivity”.

Turning to “QVQLVESGGGLVQAGGSLRLSCAASGFTFRRYTMGWYRQAPGKERELVAAISRSGGSTFYADSVKGRFTISRDYAKNTVYLQMNSLKPEDTAVYYCNAGRTYTALNGDYWGQGTQVTVSS”, the “polyreactivity (PSR sort gate)” value is recorded as “high polyreactivity”.

For the sequence “QVQLVESGGGLVQAGGSLRLSCAASGFTFRSYAMGWYRQAPGKERELVASISWSGTSTYYADSVKGRFTISRDNAKNTVYLQMNSLKPEDTAVYYCNKYPSFYGAGYYWGQGTQVTVSS”, the “polyreactivity (PSR sort gate)” value is given as “high polyreactivity”.

On to “QVQLVESGGGLVQAGGSLRLSCAASGFTFRSYAMGWYRQAPGKERELVAVISSSGGSTYYADSVKGRFTISRDNAKNTVYLQMNSLKPEDTAVYYCNRRPATRAYLYDYWGQGTQVTVSS”, for which the “polyreactivity (PSR sort gate)” value was “high polyreactivity”.

As for “QVQLVESGGGLVQAGGSLRLSCAASGFTFRTNAMGWYRQAPGKERELVAAISTGARTYYADSVKGRFTISRDNAKNTVYLQMNSLKPEDTAVYYCNKVLRRFLSRYDYWGQGTQVTVSS”, the “polyreactivity (PSR sort gate)” value is on record as “high polyreactivity”.

In the case of “QVQLVESGGGLVQAGGSLRLSCAASGFTFRTNLMVWYRQAPGKERELVAVITRDGGSTYYADSVKGRFTISRDHAKNTVYLQINSLKPEDTAVYYCNAAAFINFILYDYWGQGTQVTVSS”, the “polyreactivity (PSR sort gate)” value is listed as “high polyreactivity”.
